Data on two molecules can be found in US20230398116A1, “Agent for reversing resistance to anticancer drugs” (Y'S AC CO., LTD., priority 2020, published 2023).

The test system of assay [1] is phosphorylation of AKT, JNK and EphA3 in HCC70 cells. Put plainly: Western blotting of phosphorylation in HCC70 cells. The class given is cell-based, human. The note with it: HCC70, IL-26 30 ng/ml or Ephrin A5 200 ng/ml, gefitinib 40 μM, FIG. 26. As for the experimental part: To analyze the phosphorylation of AKT, ERK, p38, JNK, STAT3, and EphA3, E0771 cells and HCC70 cells in 100 mm dishes were stimulated with IL-26 ([…]) and an anti-EphA3 polyclonal antibody (pAb) (10 μg/ml) for a specified period of time. After stimulation, the cells were lysed with a 2% protease inhibitor mixture (Sigma-Aldrich) and/or RIPA buffer added with 1×PhosSTOP (Roche Diagnostics, Tokyo, Japan), and a lysate was separated in a reduced state by SDS-PAGE (15 μg/lane). Immunoblots were performed using an anti-phosphorylated AKT antibody, an anti-phosphorylated ERK antibody, an anti-phosphorylated p38 antibody, an anti-phosphorylated JNK antibody, an anti-phosphorylated STAT3 antibody, and an anti-phosphorylated EphA3 antibody that recognize both human and mouse antigens. For reprobing, the membrane was immersed in a stripping buffer. After the stripping procedure, the membranes were re-probed with anti-pan-AKT, anti-pan-ERK, anti-pan-p38, anti-pan-JNK, anti-pan-STAT3, and anti-pan-EphA3 antibodies recognizing both human and mouse antigens. Images were taken using a C-Digit Blot scanner (MS Techno Systems, Inc., Japan).

Assay [2] is described as follows: Heterogeneous chronic GVHD model (NOG mice transplanted with human umbilical cord blood mononuclear cells). The format is in vivo, mouse. The note with it: for lung histopathology (inflammatory cell infiltration, fibrogenesis, collagen): eight weeks after transplantation, H&E and Azan-Mallory staining, FIG. 60. As for the experimental part: On day −1, NOG mice were irradiated with a sublethal dose (100 cGy). On day 0, 5×10^6 human umbilical cord blood mononuclear cells were transplanted from the tail vein of NOG mice. Survival of the mice was assessed daily and body weight was measured twice a week. In an antibody treatment experiment, the control human IgG or anti-human IL-26 monoclonal antibody (the mouse antibody m69-10 and the humanized antibody h69-10A) was administered from day +28 of transplantation when clinical signs/symptoms of mild GVHD began to appear. The antibody solution was adjusted to a concentration of 1 mg/mL with sterile PBS, and 200 μL (200 μg) of the antibody solution per mouse was intraperitoneally injected twice a week. On day +56 after transplantation, the mice were sacrificed, and the skin, lung, liver, and large intestine were collected.
NOG mice were dissected, and then the skin, lung, liver, and large intestine on the back were excised, fixed in 10% formalin solution (Wako) at room temperature, and embedded in paraffin. Thereafter, a section having a thickness of 5 μm was prepared and placed on a glass slide, and stained with hematoxylin and eosin (H&E). In addition, in order to confirm the proliferation of collagen fibers, Azan-Mallory staining was performed. Images of the optical microscope were taken with an Olympus BX41 microscope (OLYMPUS, Tokyo, Japan) connected with an Olympus digital camera DP25, and CellSens software was used.

For assay [3], the target named is T1, IL-26 (Homo sapiens, UniProt Q9NPH9).
T1 sequence (Q9NPH9 22-171): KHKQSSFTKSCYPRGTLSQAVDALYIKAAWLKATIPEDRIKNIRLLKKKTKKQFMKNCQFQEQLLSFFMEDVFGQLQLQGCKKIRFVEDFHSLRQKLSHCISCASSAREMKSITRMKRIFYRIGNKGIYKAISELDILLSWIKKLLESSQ
In words: ELISA of antigen binding to human IL-26. Further details: purchased R&D Systems 1375-IL/CF. The note with it: plates coated with 0.5 μg/ml human IL-26 monomer; calculated using GraphPadPrism. As for the experimental part: The antigen binding of purified Ch69-10-IgG1, Hu69-10A-IgG1, and Hu69-10B-IgG1 was analyzed by ELISA. ELISA plates were coated overnight at 4° C. with the addition of 0.5 μg/ml human IL-26 (recombinant human IL-26/AK155 monomer, Cat #1375-IL/CF, R&D Systems, Minneapolis, MN) at 100 μl/well in 0.2 M sodium carbonate buffer (pH 9.4). Wells were washed with the wash buffer and blocked with the ELISA buffer. Subsequently, 100 μl/well of test antibody (mouse 69-10, Ch69-10-IgG1, Hu69-10A-IgG1, or Hu69-10B-IgG1) serially diluted 2-fold in RPMI medium starting at 5 μg/ml was added to measure a binding with IL-26. After incubation at room temperature for 1 hour and washing the plates with a wash buffer, a 1/2,000-diluted HRP-conjugated goat anti-human kappa chain polyclonal antibody (Bethyl Laboratories) (for Ch69-10-IgG1, Hu69-10A-IgG1 and Hu69-10B-IgG1) or a 1/2,000-diluted HRP-labeled goat anti-mouse kappa chain polyclonal antibody (Bethyl Laboratories) (for mouse 69-10) in ELISA buffer was added at 100 μl/well to detect bound antibodies. After incubation at room temperature for 30 min and washing with the wash buffer, 100 μl/well of ABTS substrate (Sigma Aldrich) was added to start color development and 100 μl/well of 2% oxalic acid was added to stop the color development. The absorbance was measured at 405 nm.

The target in assay [4] is T1, IL-26. Put plainly: ICAM-1 expression analysis of COLO205 (neutralizing activity of IL-26). The note with it: COLO205, recombinant human IL-26 monomer 20 ng/mL, 24 hours, flow cytometry (MFI). The format is cell-based. Further details: host or cells: added exogenously to COLO205 cells. On the procedure:
COLO205 was seeded at 5×10^4 cells/well in a 96-well flat bottom plate, and stimulated with recombinant human IL-26 monomer (20 ng/mL) in the presence or absence of control human IgG or anti-human IL-26 antibody. After 24 hours of culture, the cells were collected and washed with ice-cold PBS (FCM buffer) containing 1% FBS and 0.1% sodium azide. Thereafter, a solution prepared by diluting a PE-labeled mouse anti-human ICAM-1 monoclonal antibody (clone 15.2, catalog number 50-0549-T100) of Bay bioscience (Kobe, Japan) or a PE-labeled mouse Igl,k isotype control monoclonal antibody (clone MOPC-21, catalogue number 400114) of BioLegend with FCM buffer to 5 μg/mL, was added at 50 μL/sample, and the mixture was allowed to stand at 4° C. for 25 minutes. Thereafter, the cells were washed with ice-cold FCM buffer, then measured with FACSCalibur, and the obtained data was analyzed with FlowJo.

[5] abbreviates: 200 μg per mouse i.p. twice a week from day 28, data not shown.

B1: IL-26: recombinant human IL-26 dimers for cell stimulation, R&D Systems (protein)
chain: KHKQSSFTKSCYPRGTLSQAVDALYIKAAWLKATIPEDRIKNIRLLKKKTKKQFMKNCQFQEQLLSFFMEDVFGQLQLQGCKKIRFVEDFHSLRQKLSHCISCASSAREMKSITRMKRIFYRIGNKGIYKAISELDILLSWIKKLLESSQ
Turning to B1, the “dephosphorylation of EphA3, activation of AKT and JNK phosphorylation” value in assay [1] is “dephosphorylation of EphA3, activation of AKT and JNK phosphorylation”.

B2: 69-10: mouse anti-human IL-26 monoclonal antibody, clone 69-10, from deposited hybridoma (antibody, V domains shown)
VH: QVTLKESGPGILKPSQTLSLTCSFSGFSLSTSGMGVGWIRQPSGKGLEWLAHIWWDDDKYYNPSLKSQLTISKDTSRNQVFLKITSVDTADTATYYCVRGGITATHYYAMDYWGQGTSVTVSS
VL: DIQMTQSPASQSASLGESVTISCLASQTIGTWLSWYQQKPGKSPQLLIYAATSLADGVPSRFSGSGSGTKFSFKISSLQAEDFVSYYCQQLYSSPWTFGGGTKLEIK
In the case of B2, in assay [2] (setting [5]), the body weight loss entry is given as “clearly reduced” and the “number of survival days” value is given as “significantly prolonged”. Further, the “lung histopathology (inflammatory cell infiltration, fibrogenesis, collagen)” value in assay [2] is given as “clearly reduced”. The “lung histopathology (inflammatory cell infiltration, fibrogenesis, collagen)” value in assay [2] (listed as m69-10) is “suppression of inflammatory cell infiltration, reduction of fibrogenesis, and reduction of collagen deposition were remarkably observed”. The “hair disorder (appearance)” value in assay [2] (eighth week of transplantation) was “slightly suppressed”. Moreover, the “EC50 values (binding to human IL-26, ELISA)” value with IL-26 [3] was 0.34 mg/L. Besides, the “inhibition of IL-26-enhanced expression of ICAM-1” value with IL-26 [4] was “partially inhibited”.
